Experimental data published in paper PMC5670239, “Structural basis for mutually exclusive co-transcriptional nuclear cap-binding complexes with either NELF-E or ARS2” (Nature Communications, 2017).
Each block holds one molecule with its values, some of them ahead of it.

Columns and labels:
m^7GTP-CBC = target: T1, m^7GTP-CBC (Homo sapiens, UniProt P52298+Q09161); assay: ITC, binding to CBC in the presence of the cap analogue m^7GTP; details: ITC, 25 °C, 20 mM HEPES, 120 mM NaCl, 2 mM TCEP, pH 7.8, CBC bound to m^7GTP, mean ± SD of at least two independent experiments
T1 construct: 6-histidine tag (pETM30 vector) (N, cleaved yes); made in house; host or cells: CBP20 in E. coli Rosetta 2; CBP80ΔNLS in High Five insect cells; heterodimer reconstituted on Ni-sepharose
T1 sequence (Q09161 20-790): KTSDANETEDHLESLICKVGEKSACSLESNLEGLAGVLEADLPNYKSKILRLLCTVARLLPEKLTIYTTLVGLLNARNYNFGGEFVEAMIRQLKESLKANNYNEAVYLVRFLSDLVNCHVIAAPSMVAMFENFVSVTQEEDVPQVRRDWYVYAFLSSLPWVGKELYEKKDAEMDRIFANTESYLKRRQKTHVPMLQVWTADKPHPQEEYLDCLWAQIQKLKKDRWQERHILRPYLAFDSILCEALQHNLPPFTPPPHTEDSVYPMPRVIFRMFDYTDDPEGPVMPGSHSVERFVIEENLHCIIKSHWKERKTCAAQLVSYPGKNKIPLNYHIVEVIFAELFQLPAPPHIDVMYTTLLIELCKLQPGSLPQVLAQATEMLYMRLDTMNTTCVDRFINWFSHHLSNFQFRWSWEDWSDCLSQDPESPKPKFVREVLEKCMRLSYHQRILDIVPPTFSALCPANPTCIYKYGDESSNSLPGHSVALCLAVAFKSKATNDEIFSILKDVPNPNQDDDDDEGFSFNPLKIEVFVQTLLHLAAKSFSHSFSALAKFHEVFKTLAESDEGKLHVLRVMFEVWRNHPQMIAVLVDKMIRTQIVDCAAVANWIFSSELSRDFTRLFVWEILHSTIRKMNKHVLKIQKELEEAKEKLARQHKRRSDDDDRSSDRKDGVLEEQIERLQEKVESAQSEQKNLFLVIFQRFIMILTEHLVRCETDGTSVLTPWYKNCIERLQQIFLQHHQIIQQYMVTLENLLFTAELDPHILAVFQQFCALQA
T1 sequence (P52298 1-156): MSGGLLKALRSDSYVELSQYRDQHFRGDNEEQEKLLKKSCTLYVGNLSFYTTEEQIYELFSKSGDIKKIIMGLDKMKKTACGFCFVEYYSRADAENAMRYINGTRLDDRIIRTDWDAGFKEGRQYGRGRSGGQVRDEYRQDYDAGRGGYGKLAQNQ
From the text: (§1) hARS2 isoform-4 (871 residues, UniProt:Q9BXP5-4, also known as isoform-e, NP_001122326) constructs (residues 147–871, 147–845, 763–871, 763–845, 827–871) hNELF-E (NM_002904.5) (244–380, 244–360) and hPHAX (NM_032177.3) (1–394, 103–294, 103–308, 103–327) were cloned into pETM11 (EMBL). Full-length hNELF-E (1–380) was cloned into pFASTBac and CBP20 into pETM30. Primers used are given in Supplementary Table 2. All constructs were expressed in E. coli Rosetta 2 (Novagen), except full-length NELF-E and CBP80ΔNLS (CBP80 with residues 1–19 deleted[2]), which were expressed in High Five insect cells (Life Technology). Cells were harvested and lysed by sonication in lysis buffer containing 50 mM HEPES, pH 7.8, 300 mM NaCl, 10% (v/v) glycerol, 5 mM β-mercaptoethanol. Lysates were clarified by centrifugation and applied on an equilibrated Ni-sepharose column (GE Healthcare), washed with 20 mM imidazole in lysis buffer, and eluted with 300 mM imidazole in lysis buffer. While dialysing into 20 mM HEPES, pH 7.8, 120 mM NaCl, 10% (v/v) glycerol, 5 mM β-mercaptoethanol, the N-terminal 6-histidine-tag was cleaved with His-tagged Tobacco Etch Virus (TEV) protease overnight in a ratio 1:100 mg TEV per mg protein. The cleaved protein was further purified first on Ni-sepharose to remove TEV and then using an anion exchange column (HiTrap Q, GE Healthcare) followed if necessary by a Heparin column (GE Healthcare). In both cases a NaCl gradient from 50 to 800 mM in 20 mM HEPES 7.8, 0.5 mM tris(2-carboxyethyl)phosphine was used. To reconstitute the CBC heterodimer, cleared His-tagged CBP20 lysate was first immobilised on a Ni-sepharose column. After washing the column with lysis buffer, the cleared CBP80 lysate was applied to the column and further purification steps performed as described above. To remove the access of CBP20 the flow through of the Ni-column after TEV cleavage was loaded on an anion exchange column (HiTrap Q, GE Healthcare) and CBC eluted by a NaCl gradient as described above. In the text we refer to CBP80ΔNLS and CBP80ΔNLS-CBP20 as CBP80 and CBC, respectively. ARS2^845–871, NELF-E^354–380, and NELF-E^360–380 peptides, with or without FAM label at the N-terminus, were purchased from GenScript.

CBC [1] = target: T2, CBC (Homo sapiens, UniProt P52298); assay: Size exclusion chromatography (gel filtration) co-elution with CBC, with m^7GTP; format: binding; details: gel filtration with 500 µM m^7GTP, fractions analysed by SDS-PAGE
T2 sequence (P52298 1-156): T1 sequence (P52298 1-156)
T2 sequence (Q09161 20-790 partner): T1 sequence (Q09161 20-790)
Method: Fig. 1 The interaction of CBC with ARS2 is enhanced in the presence of m^7GTP. a Schematic diagram of the domain structure of ARS2 based on ref. [26]. b Gel filtration chromatogram and Coomassie-stained SDS-PAGE of CBC-ARS2 in the presence and absence of m^7GTP. Purified recombinant CBC and ARS2^147–871 were mixed with (orange) or without (blue) 500 µM m^7GTP and subjected to gel filtration. Their elution profiles were overlaid (left) and single fractions analysed by SDS-PAGE (middle and right). Purified recombinant CBC and C-terminally truncated ARS2^147–845 were mixed with 500 µM m^7GTP and analysed in a similar way (bottom left). c ITC data and curve fit to derive the affinity of different ARS2 constructs for CBC. CBC or m^7GTP-CBC in the sample cell was titrated by ARS2. […] K D values and standard deviation represent the average from at least two independent experiments. d Sequence alignment of the C-terminus of ARS2. Conserved residues are highlighted in red. Figure made with ESPript[54]
Fig. 2 The interaction of CBC with NELF-E is enhanced in the presence of m^7GTP. a Schematic diagram of the domain structure of NELF-E. b Gel filtration chromatogram and Coomassie-stained SDS-PAGE of CBC-NELF-E in the presence and absence of m^7GTP. Purified recombinant CBC and NELF-E were mixed with (orange) or without (green) 500 µM m^7GTP and subjected to gel filtration. Their elution profiles were overlaid (left) and single fractions analysed by SDS-PAGE (middle and right). Purified recombinant CBC and NELF-E^244–360 were mixed together with 500 µM m^7GTP and similarly analysed (bottom left). c ITC data and curve fit to derive the affinity of different NELF-E constructs for CBC. CBC or m^7GTP-CBC in the sample cell was titrated by NELF-E^244–380 or NELF-E^360–380. The data were presented as described in the caption to Fig. 1c. d Sequence alignment of the C-terminus of NELF-E. Conserved residues are highlighted in red. Figure made with ESPript[54]

CBC [2] = target: T2, CBC; assay: ITC, binding to CBC without cap analogue; details: ITC (MicroCal ITC200), 25 °C, 20 mM HEPES, 120 mM NaCl, 2 mM TCEP, pH 7.8, single-site fit; no cap analogue pre-bound; mean ± SD of at least two independent experiments; SD
From the text: as §1

B1: ARS2 763–845: human ARS2 isoform 4 residues 763–845, lacks the C-terminal 27 amino acids (protein, UniProt Q9BXP5 763-845, looked up, fragment)
chain: PEIKPAQPPGPAQILPPGLTPGLPYPHQTPQGLMPYGQPRPPILGYGAGAVRPAVPTGGPPYPHAPYGAGRGNYDAFRGQGGY
modifications: isoform 4
notes: human ARS2 isoform 4 residues 763–845, lacks the C-terminal 27 amino acids
K D (m^7GTP-CBC): failed to bind

B2: NELF-E 244–360: NELF-E fragment that lacks the last 20 residues (protein, UniProt P18615 244-360, looked up, fragment)
chain: GPFRRSDSFPERRAPRKGNTLYVYGEDMTPTLLRGAFSPFGNIIDLSMDPPRNCAFVTYEKMESADQAVAELNGTQVESVQLKVNIARKQPMLDAATGKSVWGSLAVQNSPKGCHRD
Interaction with CBC by SEC in the presence of m^7GTP (CBC [1]): no stable complex is observed by SEC

B3: ARS2^147–845: C-terminally truncated ARS2, residues 147–845 (protein, UniProt Q9BXP5 147-845, looked up, fragment)
chain: PVMKTFKEFLLSLDDSVDETEAVKRYNDYKLDFRRQQMQDFFLAHKDEEWFRSKYHPDEVGKRRQEARGALQNRLRVFLSLMETGWFDNLLLDIDKADAIVKMLDAAVIKMEGGTENDLRILEQEEEEEQAGKPGEPSKKEEGRAGAGLGDGERKTNDKDEKKEDGKQAENDSSNDDKTKKSEGDGDKEEKKEDSEKEAKKSSKKRNRKHSGDDSFDEGSVSESESESESGQAEEEKEEAEEALKEKEKPKEEEWEKPKDAAGLECKPRPLHKTCSLFMRNIAPNISRAEIISLCKRYPGFMRVALSEPQPERRFFRRGWVTFDRSVNIKEICWNLQNIRLRECELSPGVNRDLTRRVRNINGITQHKQIVRNDIKLAAKLIHTLDDRTQLWASEPGTPPLPTSLPSQNPILKNITDYLIEEVSAEEEELLGSSGGAPPEEPPKEGNPAEINVERDEKLIKVLDKLLLYLRIVHSLDYYNTCEYPNEDEMPNRCGIIHVRGPMPPNRISHGEVLEWQKTFEEKLTPLLSVRESLSEEEAQKMGRKDPEQEVEKFVTSNTQELGKDKWLCPLSGKKFKGPEFVRKHIFNKHAEKIEEVKKEVAFFNNFLTDAKRPALPEIKPAQPPGPAQILPPGLTPGLPYPHQTPQGLMPYGQPRPPILGYGAGAVRPAVPTGGPPYPHAPYGAGRGNYDAFRGQGGY
Interaction with CBC by SEC in the presence of m^7GTP (CBC [1]): failed to bind

B5: ARS2 763–871: human ARS2 isoform 4 residues 763–871, E. coli expressed (protein, UniProt Q9BXP5 763-871, looked up, fragment)
chain: PEIKPAQPPGPAQILPPGLTPGLPYPHQTPQGLMPYGQPRPPILGYGAGAVRPAVPTGGPPYPHAPYGAGRGNYDAFRGQGGYPGKPRNRMVRGDPRAIVEYRDLDAPD
modifications: isoform 4
notes: human ARS2 isoform 4 residues 763–871, E. coli expressed
Kd (m^7GTP-CBC; SD): 1000 ± 300 nM

The remaining lines, values ahead:

Kd (CBC [2]): 850 ± 210 nM
B4: PHAX 103–294: human PHAX residues 103–294, minimal CBC binding region (protein, UniProt Q9H814 103-294, looked up, fragment)
chain: SQKPPVAGGKKINNIWGAVLQEQNQDAVATELGILGMEGTIDRSRQSETYNYLLAKKLRKESQEHTKDLDKELDEYMHGGKKMGSKEEENGQGHLKRKRPVKDRLGNRPEMNYKGRYEITAEDSQEKVADEISFRLQEPKKDLIARVVRIIGNKKAIELLMETAEVEQNGGLFIMNGSRRRTPGGVFLNLLK

Kd (CBC [2]): 600 ± 140 nM
B6: PHAX 103–308: human PHAX residues 103–308 (protein, UniProt Q9H814 103-308, looked up, fragment)
chain: SQKPPVAGGKKINNIWGAVLQEQNQDAVATELGILGMEGTIDRSRQSETYNYLLAKKLRKESQEHTKDLDKELDEYMHGGKKMGSKEEENGQGHLKRKRPVKDRLGNRPEMNYKGRYEITAEDSQEKVADEISFRLQEPKKDLIARVVRIIGNKKAIELLMETAEVEQNGGLFIMNGSRRRTPGGVFLNLLKNTPSISEEQIKDIF
